Measurements reported in patent US20230097381A1, “COMPOSITION, KIT AND METHOD FOR DIAGNOSIS AND TREATMENT OF PROSTATE CANCER” (RADIOMEDIX, INC., priority 2020, published 2023).

What was measured:
[1] = system: PSMA-overexpressing LNCap and 22Rv1-derived xenografts; set-up: species or system Athymic Nude Mice; details: mouse, in vivo
Procedure: About 5×10^6 LNCap and 22Rv1 cells suspended in 100 μL of RPMI 1640 with 50% Matrigel (Corning, Corning, N.Y.) were subcutaneously injected into upper flank of 6-7-week-old mice. Xenografts were generated in Athymic Nude Mice (Envigo, Indianapolis, Ind. and Taconic, Rensselaer, N.Y.). When xenograft tumor reached the size of 0.25 cm^3 in diameter, all mice were randomly divided in groups for PET imaging and biodistribution studies.
PET/X-Ray imaging studies were performed using GENISYS^4 scanner (Sofie Bioscience, Curlver City, Calif.). Mice were anesthetized using with isoflurane (2% in 98% oxygen) and their temperature was kept at 38° C. with a heating lamp during injection of the agent and image acquisition All images were corrected for photon attenuation, but scatter correction was not applied. Maximum-Likehood Expectation Maximization was used to create final images volumes. Static PET scans were acquired approximately at 1 h, 2 h, 4 h after intravenous injection of ^64Cu-DOTAM-PSMA in 200 μL volume. The image acquisition time was 10 minutes. VivoQuant software (Invicro, Boston, Mass.) was used to determine the ROI (Sum) for tumor, liver, kidney, muscle and salivary gland which were equivalent to % ID/g uptake of agent at various time points.

[2] = in vivo; set-up: species or system athymic nude mice; details: athymic nude, mouse, iv, total radioactivity
Procedure: (§1) Mice bearing LNCap and 22Rv1 xenografts were injected via the tail vein with 50-100 μCi of ^64Cu-DOTAM-PSMA reconstituted in 150-200 μL of saline. At 1 h, 2 h, and 24 hrs. post injection, while under anesthesia blood was collected by cardiac puncture and mice were sacrificed by cervical dislocation. The heart, lung liver, stomach, pancreas, spleen fat, kidney, muscle, intestines, skin and tumor were collected. Each organ was weighed, and the tissue radioactivity was measured with an automated gamma counter (2470 Wizard2 Gamma Counter, Perkin-Elmer, Waltham, Mass.). The percentage of injected dose per gram of tissue (% ID/g) was calculated. All measurements were corrected for decay.

[3] = system: LNCap and 22Rv1 xenografts; set-up: species or system R2G2 strain of mice; details: mouse, in vivo
Procedure: as §1, with “[…] strains of mice” for “Mice”

[4] = in vivo; set-up: species or system athymic nude mice; details: athymic nude, mouse, iv, 40 uCi, total radioactivity
Procedure: (§2) Athymic strains of mice bearing LNCap xenografts were injected via the tail vein with 40 μCi of ^203Pb-DOTAM-PSMA reconstituted in 200-250 μL of saline. At 1 h and 3 h post injection, while under anesthesia blood was collected by cardiac puncture and mice were sacrificed by cervical dislocation. The heart, lung liver, stomach, pancreas, spleen fat, kidney, muscle, intestines, skin and tumor were collected. Each organ was weighed, and the tissue radioactivity was measured with an automated gamma counter (2470 Wizard2 Gamma Counter, Perkin-Elmer, Waltham, Mass.). The percentage of injected dose per gram of tissue (% ID/g) was calculated. All measurements were corrected for decay.

[5] = system: LNCap xenografts; experiment: in vivo; set-up: species or system athymic nude mice; details: mouse
Procedure: as §2

[6] = in vivo; set-up: species or system athymic nude mice; details: athymic nude, mouse, iv, 15 uCi, total radioactivity
Procedure: as §2, with “with 15” for “with 40”, “of ^212Pb-DOTAM-PSMA” for “of ^203Pb-DOTAM-PSMA”, “in 150-200” for “in 200-250”, “1 h,” for “1 h and”, “3 h,” for “3 h”, “calculated. AH” for “calculated. All”

[7] = system: LNCap xenografts; experiment: in vivo; set-up: species or system athymic nude mice; details: mouse; remark: listed apart in the source
Procedure: as §2, with “with 15” for “with 40”, “of ^212Pb-DOTAM-PSMA” for “of ^203Pb-DOTAM-PSMA”, “in 150-200” for “in 200-250”, “1 h,” for “1 h and”, “3 h,” for “3 h”, “calculated. AH” for “calculated. All”

SMILES: NC(=O)CN1CCN(CC(N)=O)CCN(CC(=O)N[C@H](Cc2ccccc2)C(=O)N[C@H](Cc2ccccc2)C(=O)N[C@H](CCCCNC(=O)CCCCCCC(=O)NCCCC[C@H](NC(=O)N[C@@H](CCC(=O)O)C(=O)O)C(=O)O)C(=O)O)CCN(CC(N)=O)CC1 [^64Cu-DOTAM-PSMA, metal not drawn]
- highest non-target uptake of agent (organ) [1]: liver
- retention in LNCap and 22Rv1-derived tumors (microPET) [1]: confirmed retention
- tumor retention in LNCap and 22Rv1 cancer cells (microPET) [1]: confirmed its tumor retention
- tissue uptake at 24 h ([2]; Retention in tumor): 10 ± 11.1 %ID/g
- tissue uptake at 2 h ([2]; Tumor uptake): 24.8 ± 31.1 %ID/g
- tissue uptake at 4 h ([2]; Tumor uptake): 9.7 ± 10.9 %ID/g
- tissue uptake at 2 h ([2]; off-target accumulation in kidneys): 20 ± 2.9 %ID/g
- tissue uptake at 2 h ([2]; off-target accumulation in liver): 45.8 ± 6.2 %ID/g
- tissue uptake at 4 h ([2]; renal retention): 13 ± 0.6 %ID/g
- tissue uptake at 24 h ([2]; uptake in kidneys): 7.8 ± 7.9 %ID/g
- tissue uptake at 24 h ([2]; uptake in liver): 12.4 ± 11.9 %ID/g
- liver retention of trans-chelated Cu64, comparison of strains [3]: higher in R2G2 mice strain compared to NOG strain but it was still lower the one observed in athymic nude
- tumor retention, R2G2 strain versus NOG strain [3]: much more favorable in R2G2 strain than NOG strain

SMILES: NC(=O)CN1CCN(CC(N)=O)CCN(CC(=O)N[C@H](Cc2ccccc2)C(=O)N[C@H](Cc2ccccc2)C(=O)N[C@H](CCCCNC(=O)CCCCCCC(=O)NCCCC[C@H](NC(=O)N[C@@H](CCC(=O)O)C(=O)O)C(=O)O)C(=O)O)CCN(CC(N)=O)CC1 [^203Pb-DOTAM-PSMA, metal not drawn]
- tissue uptake at 1 h [4]: 16.1 ± 0.8 %ID/g
- tissue uptake at 3 h [4]: > 4.8 %ID/g
- decrease of renal retention [5]: 32%
- normal organs distribution, ^203Pb- versus ^212Pb-DOTAM-PSMA [5]: very similar normal organs distribution

SMILES: NC(=O)CN1CCN(CC(N)=O)CCN(CC(=O)N[C@H](Cc2ccccc2)C(=O)N[C@H](Cc2ccccc2)C(=O)N[C@H](CCCCNC(=O)CCCCCCC(=O)NCCCC[C@H](NC(=O)N[C@@H](CCC(=O)O)C(=O)O)C(=O)O)C(=O)O)CCN(CC(N)=O)CC1 [^212Pb-DOTAM-PSMA, metal not drawn]
- tissue uptake at 1 h ([6]; Tumor uptake): 5.7 ± 0.9 %ID/g
- tissue uptake at 3 h ([6]; Tumor uptake): 7.2 ± 2.6 %ID/g
- tissue uptake at 1 h ([6]; renal retention): 32.2 ± 15.6 %ID/g
- tissue uptake at 3 h ([6]; renal retention): 17.7 ± 9.4 %ID/g
- decrease of renal retention [7]: 55%
- uptake in bone and spleen [7]: not uptake of agent in bone and spleen
